Test results reported in ChEMBL document CHEMBL1212722, “Designer enzymes for glycosphingolipid synthesis by directed evolution” (Nat Chem Biol, 2009).
Substitutions are numbered along the chain they refer to. Names may count otherwise.

Tests used:
[1] = test system: Rhodococcus sp.; assay: Ratio of Kcat to Km of Activity of Rhodococcus sp. M777 Endoglycoceramidase 2 containing wild type sequence E351S
[2] = test system: Rhodococcus sp.; assay: Activity of Rhodococcus sp. M777 Endoglycoceramidase 2 containing wild type sequence E351S
[3] = Inhibition of Rhodococcus sp. M777 Endoglycoceramidase 2 containing wild type sequence E351S
[4] = substrate: CCCCCCCCCCCCCC[C@@H](O)[C@@H](O)[C@@H](N)CO; assay: Ratio of Kcat to Km of Activity of Rhodococcus sp. M777 Endoglycoceramidase 2 V101M K200R mutant
[5] = substrate: CCCCCCCCCCCCC/C=C/[C@@H](O)[C@@H](N)CO; assay: (§1) Ratio of Kcat to Km of Activity of Rhodococcus sp. M777 Endoglycoceramidase 2 R177H mutant
[6] = substrate: CC(=O)N[C@H]1[C@H](O[C@@H]2[C@H](O[C@]3(C(=O)O)C[C@H](O)[C@@H](NC(C)=O)[C@H]([C@@H](O)[C@@H](O)CO)O3)[C@@H](O)[C@H](O[C@H]3[C@H](O)[C@@H](O)[C@@H](F)O[C@@H]3CO)O[C@@H]2CO)O[C@H](CO)[C@H](O)[C@@H]1O[C@@H]1O[C@H](CO)[C@H](O)[C@H](O)[C@H]1O; assay: as §1
[7] = substrate: CCCCCCCCCCCCC/C=C/[C@@H](O)[C@@H](N)CO; assay: (§2) Activity of Rhodococcus sp. M777 Endoglycoceramidase 2 R177H mutant
[8] = substrate: CC(=O)N[C@H]1[C@H](O[C@@H]2[C@H](O[C@]3(C(=O)O)C[C@H](O)[C@@H](NC(C)=O)[C@H]([C@@H](O)[C@@H](O)CO)O3)[C@@H](O)[C@H](O[C@H]3[C@H](O)[C@@H](O)[C@@H](F)O[C@@H]3CO)O[C@@H]2CO)O[C@H](CO)[C@H](O)[C@@H]1O[C@@H]1O[C@H](CO)[C@H](O)[C@H](O)[C@H]1O; assay: as §2
[9] = substrate: CCCCCCCCCCCCC/C=C/[C@@H](O)[C@@H](N)CO; assay: (§3) Activity of Rhodococcus sp. M777 Endoglycoceramidase 2 I183F mutant
[10] = substrate: CC(=O)N[C@H]1[C@H](O[C@@H]2[C@H](O[C@]3(C(=O)O)C[C@H](O)[C@@H](NC(C)=O)[C@H]([C@@H](O)[C@@H](O)CO)O3)[C@@H](O)[C@H](O[C@H]3[C@H](O)[C@@H](O)[C@@H](F)O[C@@H]3CO)O[C@@H]2CO)O[C@H](CO)[C@H](O)[C@@H]1O[C@@H]1O[C@H](CO)[C@H](O)[C@H](O)[C@H]1O; assay: as §3
[11] = substrate: CCCCCCCCCCCCC/C=C/[C@@H](O)[C@@H](N)CO; assay: (§4) Ratio of Kcat to Km of Activity of Rhodococcus sp. M777 Endoglycoceramidase 2 I183F mutant
[12] = substrate: CC(=O)N[C@H]1[C@H](O[C@@H]2[C@H](O[C@]3(C(=O)O)C[C@H](O)[C@@H](NC(C)=O)[C@H]([C@@H](O)[C@@H](O)CO)O3)[C@@H](O)[C@H](O[C@H]3[C@H](O)[C@@H](O)[C@@H](F)O[C@@H]3CO)O[C@@H]2CO)O[C@H](CO)[C@H](O)[C@@H]1O[C@@H]1O[C@H](CO)[C@H](O)[C@H](O)[C@H]1O; assay: as §4
[13] = substrate: CCCCCCCCCCCCC/C=C/[C@@H](O)[C@@H](N)CO; assay: (§5) Activity of Rhodococcus sp. M777 Endoglycoceramidase 2 V269I G370R mutant
[14] = substrate: CC(=O)N[C@H]1[C@H](O[C@@H]2[C@H](O[C@]3(C(=O)O)C[C@H](O)[C@@H](NC(C)=O)[C@H]([C@@H](O)[C@@H](O)CO)O3)[C@@H](O)[C@H](O[C@H]3[C@H](O)[C@@H](O)[C@@H](F)O[C@@H]3CO)O[C@@H]2CO)O[C@H](CO)[C@H](O)[C@@H]1O[C@@H]1O[C@H](CO)[C@H](O)[C@H](O)[C@H]1O; assay: as §5
[15] = substrate: CCCCCCCCCCCCC/C=C/[C@@H](O)[C@@H](N)CO; assay: (§6) Ratio of Kcat to Km of Activity of Rhodococcus sp. M777 Endoglycoceramidase 2 V269I G370R mutant
[16] = substrate: CC(=O)N[C@H]1[C@H](O[C@@H]2[C@H](O[C@]3(C(=O)O)C[C@H](O)[C@@H](NC(C)=O)[C@H]([C@@H](O)[C@@H](O)CO)O3)[C@@H](O)[C@H](O[C@H]3[C@H](O)[C@@H](O)[C@@H](F)O[C@@H]3CO)O[C@@H]2CO)O[C@H](CO)[C@H](O)[C@@H]1O[C@@H]1O[C@H](CO)[C@H](O)[C@H](O)[C@H]1O; assay: as §6
[17] = substrate: CCCCCCCCCCCCC/C=C/[C@@H](O)[C@@H](N)CO; assay: (§7) Activity of Rhodococcus sp. M777 Endoglycoceramidase 2 V269I mutant
[18] = substrate: CC(=O)N[C@H]1[C@H](O[C@@H]2[C@H](O[C@]3(C(=O)O)C[C@H](O)[C@@H](NC(C)=O)[C@H]([C@@H](O)[C@@H](O)CO)O3)[C@@H](O)[C@H](O[C@H]3[C@H](O)[C@@H](O)[C@@H](F)O[C@@H]3CO)O[C@@H]2CO)O[C@H](CO)[C@H](O)[C@@H]1O[C@@H]1O[C@H](CO)[C@H](O)[C@H](O)[C@H]1O; assay: as §7
[19] = substrate: CCCCCCCCCCCCC/C=C/[C@@H](O)[C@@H](N)CO; assay: (§8) Ratio of Kcat to Km of Activity of Rhodococcus sp. M777 Endoglycoceramidase 2 V269I mutant
[20] = substrate: CC(=O)N[C@H]1[C@H](O[C@@H]2[C@H](O[C@]3(C(=O)O)C[C@H](O)[C@@H](NC(C)=O)[C@H]([C@@H](O)[C@@H](O)CO)O3)[C@@H](O)[C@H](O[C@H]3[C@H](O)[C@@H](O)[C@@H](F)O[C@@H]3CO)O[C@@H]2CO)O[C@H](CO)[C@H](O)[C@@H]1O[C@@H]1O[C@H](CO)[C@H](O)[C@H](O)[C@H]1O; assay: as §8
[21] = substrate: CCCCCCCCCCCCC/C=C/[C@@H](O)[C@@H](N)CO; assay: (§9) Activity of Rhodococcus sp. M777 Endoglycoceramidase 2 G370E mutant
[22] = substrate: CC(=O)N[C@H]1[C@H](O[C@@H]2[C@H](O[C@]3(C(=O)O)C[C@H](O)[C@@H](NC(C)=O)[C@H]([C@@H](O)[C@@H](O)CO)O3)[C@@H](O)[C@H](O[C@H]3[C@H](O)[C@@H](O)[C@@H](F)O[C@@H]3CO)O[C@@H]2CO)O[C@H](CO)[C@H](O)[C@@H]1O[C@@H]1O[C@H](CO)[C@H](O)[C@H](O)[C@H]1O; assay: as §9
[23] = substrate: CCCCCCCCCCCCC/C=C/[C@@H](O)[C@@H](N)CO; assay: (§10) Ratio of Kcat to Km of Activity of Rhodococcus sp. M777 Endoglycoceramidase 2 G370E mutant
[24] = substrate: CC(=O)N[C@H]1[C@H](O[C@@H]2[C@H](O[C@]3(C(=O)O)C[C@H](O)[C@@H](NC(C)=O)[C@H]([C@@H](O)[C@@H](O)CO)O3)[C@@H](O)[C@H](O[C@H]3[C@H](O)[C@@H](O)[C@@H](F)O[C@@H]3CO)O[C@@H]2CO)O[C@H](CO)[C@H](O)[C@@H]1O[C@@H]1O[C@H](CO)[C@H](O)[C@H](O)[C@H]1O; assay: as §10
[25] = substrate: CCCCCCCCCCCCCC[C@@H](O)[C@@H](O)[C@@H](N)CO; assay: Ratio of Kcat to Km of Activity of Rhodococcus sp. M777 Endoglycoceramidase 2 N148S mutant

Question: What does the source list for `CCCCCCCCCCCCC/C=C/[C@@H](O)[C@@H](N)CO`?
Answer: kcat/Km [1]: 463 s⁻¹ M⁻¹; Km [2]: 410 µM; kcat [2]: 0.19 s⁻¹

Question: With `CCCCCCCCCCCCCC[C@@H](O)[C@@H](O)[C@@H](N)CO` [PHYTOSPHINGOSINE] as the molecule, how does the Ki [3] read?
Answer: The Ki was 850 µM.

Question: What does the source list for `CC(=O)N[C@H]1[C@H](O[C@@H]2[C@H](O[C@]3(C(=O)O)C[C@H](O)[C@@H](NC(C)=O)[C@H]([C@@H](O)[C@@H](O)CO)O3)[C@@H](O)[C@H](O[C@H]3[C@H](O)[C@@H](O)[C@@H](F)O[C@@H]3CO)O[C@@H]2CO)O[C@H](CO)[C@H](O)[C@@H]1O[C@@H]1O[C@H](CO)[C@H](O)[C@H](O)[C@H]1O`?
Answer: kcat/Km [1]: 273 s⁻¹ M⁻¹; Km [2]: 770 µM; kcat [2]: 0.21 s⁻¹

B1: Endoglycoceramidase II (Rhodococcus sp), A0ACD6B832 V101M,K200R (protein)
chain: MRRTRLVSLIVTGSLVFGGGVAAAQSSLAASGSGSGSGTALTPSYLKDDDGRSLILRGFNTASSAKSAPDGMPQFTEADLAREYADMGTNFVRFLISWRSMEPAPGVYDQQYLDRVEDRVGWYAERGYKVMLDMHQDVYSGAITPEGNSGNGAGAIGNGAPAWATYMDGLPVEPQPRWELYYIQPGVMRAFDNFWNTTGRHPELVEHYAKAWRAVADRFADNDAVVAYDLMNEPFGGSLQGPAFEAGPLAAMYQRTTDAIRQVDQDTWVCVAPQAIGVNQGLPSGLTKIDDPRAGQQRIAYCPHLYPLPLDIGDGHEGLARTLTDVTIDAWRANTAHTARVLGDVPIILGEFGLDTTLPGARDYIERVYGTAREMGAGVSYWSSDPGPWGPYLPDGTQTLLVDTLNKPYPRAVAGTPTEWSSTSDRLQLTIEPDAAITAPTEIYLPEAGFPGDVHVEGADVVGWDRQSRLLTVRTPADSGNVTVTVTPAA
Question: Which kcat/Km [4] does the source give for B1 here?
Answer: Its kcat/Km is 3.1 s⁻¹ M⁻¹.

B2: Endoglycoceramidase II (Rhodococcus sp), A0ACD6B832 R177H (protein)
chain: B1 chain with M101V, R177H, R200K
Question: For B2, which kcat/Km [5] is on record?
Answer: The kcat/Km was 353 s⁻¹ M⁻¹.

Question: What about the kcat/Km [6] of the same molecule?
Answer: Its kcat/Km is 188 s⁻¹ M⁻¹.

Question: And the Km [7]?
Answer: The Km was 170 µM.

Question: What about the kcat [7] of the same molecule?
Answer: The kcat was 0.06 s⁻¹.

Question: And the Km [8]?
Answer: The Km was 320 µM.

Question: And the kcat [8]?
Answer: The kcat was 0.06 s⁻¹.

B3: Endoglycoceramidase II (Rhodococcus sp), A0ACD6B832 I183F (protein)
chain: B1 chain with M101V, I183F, R200K
Question: What does the source list for B3?
Answer: Km [9]: 180 µM; kcat [9]: 0.09 s⁻¹; Km [10]: 180 µM; kcat [10]: 0.02 s⁻¹; kcat/Km [11]: 527 s⁻¹ M⁻¹; kcat/Km [12]: 135 s⁻¹ M⁻¹

B4: Endoglycoceramidase II (Rhodococcus sp), A0ACD6B832 V269I,G370R (protein)
chain: B1 chain with M101V, R200K, V269I, G370R
Question: With B4 as the molecule, how does the Km [13] read?
Answer: The Km was 480 µM.

Question: And the kcat [13]?
Answer: The kcat was 0.26 s⁻¹.

Question: And the Km [14]?
Answer: The Km was 890 µM.

Question: And the kcat [14]?
Answer: Its kcat is 0.17 s⁻¹.

Question: And the kcat/Km [15]?
Answer: Its kcat/Km is 542 s⁻¹ M⁻¹.

Question: What about the kcat/Km [16] of the same molecule?
Answer: The kcat/Km was 191 s⁻¹ M⁻¹.

B5: Endoglycoceramidase II (Rhodococcus sp), A0ACD6B832 V269I (protein)
chain: B1 chain with M101V, R200K, V269I
Question: With B5 as the molecule, how does the Km [17] read?
Answer: Its Km is 810 µM.

Question: And the kcat [17]?
Answer: Its kcat is 0.18 s⁻¹.

Question: What about the Km [18] of the same molecule?
Answer: Its Km is 600 µM.

Question: And the kcat [18]?
Answer: Its kcat is 0.13 s⁻¹.

Question: And the kcat/Km [19]?
Answer: Its kcat/Km is 222 s⁻¹ M⁻¹.

Question: And the kcat/Km [20]?
Answer: The kcat/Km was 217 s⁻¹ M⁻¹.

B6: Endoglycoceramidase II (Rhodococcus sp), A0ACD6B832 G370E (protein)
chain: B1 chain with M101V, R200K, G370E
Question: What does the source list for B6?
Answer: Km [21]: 670 µM; kcat [21]: 0.28 s⁻¹; Km [22]: 850 µM; kcat [22]: 0.21 s⁻¹; kcat/Km [23]: 418 s⁻¹ M⁻¹; kcat/Km [24]: 247 s⁻¹ M⁻¹

B7: Endoglycoceramidase II (Rhodococcus sp), A0ACD6B832 N148S (protein)
chain: B1 chain with M101V, N148S, R200K
Question: Which kcat/Km [25] does the source give for B7 here?
Answer: The kcat/Km was 2.1 s⁻¹ M⁻¹.
